{"source": "paper PMC11022532", "biological_target": "CslA-His12 (cellulose synthase-like protein CslA from Streptomyces lividans, full length, C-terminal 12-histidine tag) (Streptomyces lividans)"}
{"substance": "Flag-tagged GlxA^12-261 (truncated GlxA lacking Region-2 and Domain 3) (domain or fragment)", "values": [{"measurement": "activity (UDP release) of the CslA–GlxA^12-261 complex against the wild-type CslA–GlxA complex", "value": 40, "unit": "%"}]}
